Test results from publication PMC3618350 (G3: Genes|Genomes|Genetics, 2013).
Read-outs that look alike come from different tables or passages of the source.

Tests used:
Assay in all cases: two-hybrid
Rev7 [1] = molecular target: T1, Rev7 (S. cerevisiae, UniProt P38927 1-245)
T1 sequence (looked up): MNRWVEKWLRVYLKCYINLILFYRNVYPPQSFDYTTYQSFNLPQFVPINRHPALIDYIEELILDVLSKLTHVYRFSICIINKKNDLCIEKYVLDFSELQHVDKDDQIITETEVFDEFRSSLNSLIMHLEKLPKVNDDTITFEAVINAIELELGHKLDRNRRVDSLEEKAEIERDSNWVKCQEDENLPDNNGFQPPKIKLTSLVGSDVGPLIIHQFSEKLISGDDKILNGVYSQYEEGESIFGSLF

Rev1 = molecular target: T2, Rev1 (S. cerevisiae, UniProt P12689 1-985)
T2 sequence (looked up): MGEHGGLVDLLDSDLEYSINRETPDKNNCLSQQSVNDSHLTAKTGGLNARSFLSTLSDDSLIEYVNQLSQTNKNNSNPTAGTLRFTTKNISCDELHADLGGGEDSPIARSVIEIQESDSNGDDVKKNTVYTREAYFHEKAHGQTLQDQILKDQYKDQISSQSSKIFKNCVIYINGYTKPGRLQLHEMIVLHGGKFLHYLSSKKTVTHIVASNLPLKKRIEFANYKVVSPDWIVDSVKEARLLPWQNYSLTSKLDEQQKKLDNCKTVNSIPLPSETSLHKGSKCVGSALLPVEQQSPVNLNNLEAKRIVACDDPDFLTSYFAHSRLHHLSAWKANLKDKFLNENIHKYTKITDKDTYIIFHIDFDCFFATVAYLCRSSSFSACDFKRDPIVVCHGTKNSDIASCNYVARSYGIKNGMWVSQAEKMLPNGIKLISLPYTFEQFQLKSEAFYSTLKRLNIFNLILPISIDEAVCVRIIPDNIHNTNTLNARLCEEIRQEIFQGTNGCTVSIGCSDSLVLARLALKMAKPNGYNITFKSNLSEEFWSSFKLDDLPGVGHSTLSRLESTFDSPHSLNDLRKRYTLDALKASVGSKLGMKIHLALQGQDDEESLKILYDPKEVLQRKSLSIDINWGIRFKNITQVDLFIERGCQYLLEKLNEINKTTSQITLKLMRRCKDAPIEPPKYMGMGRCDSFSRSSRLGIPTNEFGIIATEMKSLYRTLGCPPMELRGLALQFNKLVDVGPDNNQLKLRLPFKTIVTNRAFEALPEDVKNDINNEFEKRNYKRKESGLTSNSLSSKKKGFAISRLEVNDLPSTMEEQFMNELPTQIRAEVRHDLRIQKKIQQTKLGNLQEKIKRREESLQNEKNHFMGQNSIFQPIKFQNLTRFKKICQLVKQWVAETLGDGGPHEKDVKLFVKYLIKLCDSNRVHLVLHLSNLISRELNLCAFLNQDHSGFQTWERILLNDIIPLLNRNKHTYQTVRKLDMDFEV

Rev7 [2] = molecular target: T1, Rev7; remark: listed apart in the source

Binder | fold change in reporter activity over the highest negative control (Rev7 [1]) [fold] | fold change in reporter activity over the highest negative control (Rev1) [fold] | further results
Rad54 (natural protein, S. cerevisiae, UniProt P32863 1-898, looked up) MARRRLPDRPPNGIGAGERPRLVPRPINVQDSVNRLTKPFRVPYKNTHIPPAAGRIATGSDNIVGGRSLRKRSATVCYSGLDINADEAEYNSQDISFSQLTKRRKDALSAQRLAKDPTRLSHIQYTLRRSFTVPIKGYVQRHSLPLTLGMKKKITPEPRPLHDPTDEFAIVLYDPSVDGEMIVHDTSMDNKEEESKKMIKSTQEKDNINKEKNSQEERPTQRIGRHPALMTNGVRNKPLRELLGDSENSAENKKKFASVPVVIDPKLAKILRPHQVEGVRFLYRCVTGLVMKDYLEAEAFNTSSEDPLKSDEKALTESQKTEQNNRGAYGCIMADEMGLGKTLQCIALMWTLLRQGPQGKRLIDKCIIVCPSSLVNNWANELIKWLGPNTLTPLAVDGKKSSMGGGNTTVSQAIHAWAQAQGRNIVKPVLIISYETLRRNVDQLKNCNVGLMLADEGHRLKNGDSLTFTALDSISCPRRVILSGTPIQNDLSEYFALLSFSNPGLLGSRAEFRKNFENPILRGRDADATDKEITKGEAQLQKLSTIVSKFIIRRTNDILAKYLPCKYEHVIFVNLKPLQNELYNKLIKSREVKKVVKGVGGSQPLRAIGILKKLCNHPNLLNFEDEFDDEDDLELPDDYNMPGSKARDVQTKYSAKFSILERFLHKIKTESDDKIVLISNYTQTLDLIEKMCRYKHYSAVRLDGTMSINKRQKLVDRFNDPEGQEFIFLLSSKAGGCGINLIGANRLILMDPDWNPAADQQALARVWRDGQKKDCFIYRFISTGTIEEKIFQRQSMKMSLSSCVVDAKEDVERLFSSDNLRQLFQKNENTICETHETYHCKRCNAQGKQLKRAPAMLYGDATTWNHLNHDALEKTNDHLLKNEHHYNDISFAFQYISH | 1.49 |  | 
Rad57 (natural protein, S. cerevisiae, UniProt P25301 1-460, looked up) MPRALSIKFDNTYMDLYDELPESKLLYDEEFSYLLDAVRQNGVCVVDFLTLTPKELARLIQRSINEVFRFQQLLVHEYNEKYLEICEKNSISPDNGPECFTTADVAMDELLGGGIFTHGITEIFGESSTGKSQLLMQLALSVQLSEPAGGLGGKCVYITTEGDLPTQRLESMLSSRPAYEKLGITQSNIFTVSCNDLINQEHIINVQLPILLERSKGSIKLVIIDSISHHLRVELQNKSFRESQENKNYLDRMAEKLQILAHDYSLSVVVANQVGDKPLANSPVAHRTYVTDYDYQLGWLVGWKNSTILYRQMNSLLGASSNNDEILSDDEDYMLIERVMSTVNDRNYDFFSKKKPPIIENKTVERNSSSPISRQSKKRKFDYRVPNLGLTWSNHVSTRILLQKSFKASTIIQRGEAHLYKGGDSASFWQVKRTMKVVYSTFAKPGQIAYQITKRGIETA | 2 |  | 
Spo11 (natural protein, S. cerevisiae, UniProt P23179 1-398, looked up) MALEGLRKKYKTRQELVKALTPKRRSIHLNSNGHSNGTPCSNADVLAHIKHFLSLAANSLEQHQQPISIVFQNKKKKGDTSSPDIHTTLDFPLNGPHLCTHQFKLKRCAILLNLLKVVMEKLPLGKNTTVRDIFYSNVELFQRQANVVQWLDVIRFNFKLSPRKSLNIIPAQKGLVYSPFPIDIYDNILTCENEPKMQKQTIFPGKPCLIPFFQDDAVIKLGTTSMCNIVIVEKEAVFTKLVNNYHKLSTNTMLITGKGFPDFLTRLFLKKLEQYCSKLISDCSIFTDADPYGISIALNYTHSNERNAYICTMANYKGIRITQVLAQNNEVHNKSIQLLSLNQRDYSLAKNLIASLTANSWDIATSPLKNVIIECQREIFFQKKAEMNEIDARIFEYK |  | 4.15 | 
Mei4 (natural protein, S. cerevisiae, UniProt P29467 1-408, looked up) MSRGKLEDMEQKETSEVDWIICFALIQSRNPTLWKRALSRKKGDVEDVGALKSEKNLKINPRENSKHIYKWVAPFENGFLNNKSLFAHLEPIYNFLCQNKYKSFEDAVGLKELQSFSKDVSTADINNWFLPRYKILLKILSLKTKEIDFRGLSQVFQTLQILLVSHYSHRIDSDSSFKRTLIDVHVFNFIAKFLFNRILLKKNQNDPKWLQNFYDQGDGKHLCDKVDYKRLCSLHFTLIYSIINIQLIKIKTNQTFEPQILKYVSVLKLIEHILIIIESLIHVLIRFVSKHKLICINRKKAYCRVYLERELSLKKTYLKNFYSVISGVPEKELGGLLKILKIVILSLLETFESIEWQHLKPFLEKFPAHEISLQKKRKYIQAALLITAERNLIARFRLSRWFNETENI |  | 3.01 | 
Rec114 (natural protein, S. cerevisiae, UniProt P32841 1-428, looked up) MYEYCSVVIKKYSKYTIPSFAPNGFQSMLEPPQIDKWQHLSANCTLQFRVLLMDSRQILINVVLNNSTLLENIRLPLGDNQDLIQFSCKSPIISCKYISEEFGPRMLRRFQMNLPNDVEFNRTVVSLKNLNFVLRTARTSIAQSTITSQVQGNNNGTKVCFTEGPKVSSYTNPNTQFQTQNMIMDFSQRYQEESERESNNRSNITLPHDSIQIAQQIWPNTDLNVVQSSQDLNTPMATQTVLGRPESLIVQPLEVSQSPPNTTNCLPNAENKKKKVDTTSDFTSRKEIALCKTGLLETIHIPKERESQMQSVTGLDATPTIIWSPGKDNTAKKNTSNKKNIDDKLTNPQKSGNTHTPDRNKEVLPNGTLNETRKEASPSEGLTIRVKNVNRNASRKISKRLIKEKLKDEEFMKWVNKVETVLNKMFEK |  |  | fold change in reporter activity over the highest negative control (Rev7 [2]): 6.27 fold
